In patent US20210063414A1, “METHODS FOR PREVENTING AND/OR TREATING BONE LOSS CONDITIONS BY MODULATING IRISIN” (Dana-Farber Cancer Institute, Inc., priority 2018, published 2021):

Key:
Assay in all cases: Crosslinking/co-immunoprecipitation/mass spectrometry (TMT quantitative proteomics) to identify irisin receptors
Format in all cases: binding
[1] = molecular target: T1, MLO-Y4 cell surface proteins (Mus musculus, UniProt G3X9C2); details: co-precipitated protein Nccrp1 (FBX50_MOUSE)
T1 construct: endogenous in cells; host or cells: MLO-Y4
T1 sequence (G3X9C2 1-266): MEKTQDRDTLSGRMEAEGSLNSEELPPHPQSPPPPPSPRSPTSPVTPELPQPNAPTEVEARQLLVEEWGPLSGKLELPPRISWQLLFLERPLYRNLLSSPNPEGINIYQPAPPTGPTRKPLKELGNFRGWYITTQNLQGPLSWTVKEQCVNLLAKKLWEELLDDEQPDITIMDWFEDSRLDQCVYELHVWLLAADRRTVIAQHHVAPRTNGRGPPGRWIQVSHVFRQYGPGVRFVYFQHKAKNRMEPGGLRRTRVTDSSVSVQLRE
Summary of the method: (§1)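 Mouse MLO-Y4 cells were switched to serum-free FreeStyle medium for 4 h, chilled, then exposed to 10 nM His-tagged irisin (or adipsin as control) for 20 min. Cells were crosslinked with 1.5 mM DTSSP (30 min, ice), and bound proteins were pulled down on Ni-NTA and eluted with 250 mM imidazole. Eluates were separated by SDS-PAGE, trypsin-digested in gel, TMT 6-plex labelled and quantified by MS3-based LC-MS/MS on an Orbitrap Fusion Lumos.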

[2] = molecular target: T2, MLO-Y4 cell surface proteins (Mus musculus, UniProt O70404); details: co-precipitated protein Vamp8 (VAMP8_MOUSE)
T2 construct: endogenous in cells; host or cells: MLO-Y4
T2 sequence (O70404 1-101): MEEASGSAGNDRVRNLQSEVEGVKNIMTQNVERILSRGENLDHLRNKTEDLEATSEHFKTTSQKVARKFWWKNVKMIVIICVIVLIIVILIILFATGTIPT
Summary of the method: as §1

[3] = molecular target: T3, MLO-Y4 cell surface proteins (Mus musculus, UniProt P61161); details: co-precipitated protein Actr2 (ARP2_MOUSE)
T3 construct: endogenous in cells; host or cells: MLO-Y4
Summary of the method: as §1

[4] = molecular target: T4, MLO-Y4 cell surface proteins (Mus musculus, UniProt Q99KR7); details: co-precipitated protein Ppif (PPIF_MOUSE)
T4 construct: endogenous in cells; host or cells: MLO-Y4
Summary of the method: as §1

[5] = molecular target: T5, MLO-Y4 cell surface proteins (Mus musculus, UniProt Q9D3P1); details: co-precipitated protein Tchhl1 (TCHL1_MOUSE)
T5 construct: endogenous in cells; host or cells: MLO-Y4
T5 sequence (Q9D3P1 1-638): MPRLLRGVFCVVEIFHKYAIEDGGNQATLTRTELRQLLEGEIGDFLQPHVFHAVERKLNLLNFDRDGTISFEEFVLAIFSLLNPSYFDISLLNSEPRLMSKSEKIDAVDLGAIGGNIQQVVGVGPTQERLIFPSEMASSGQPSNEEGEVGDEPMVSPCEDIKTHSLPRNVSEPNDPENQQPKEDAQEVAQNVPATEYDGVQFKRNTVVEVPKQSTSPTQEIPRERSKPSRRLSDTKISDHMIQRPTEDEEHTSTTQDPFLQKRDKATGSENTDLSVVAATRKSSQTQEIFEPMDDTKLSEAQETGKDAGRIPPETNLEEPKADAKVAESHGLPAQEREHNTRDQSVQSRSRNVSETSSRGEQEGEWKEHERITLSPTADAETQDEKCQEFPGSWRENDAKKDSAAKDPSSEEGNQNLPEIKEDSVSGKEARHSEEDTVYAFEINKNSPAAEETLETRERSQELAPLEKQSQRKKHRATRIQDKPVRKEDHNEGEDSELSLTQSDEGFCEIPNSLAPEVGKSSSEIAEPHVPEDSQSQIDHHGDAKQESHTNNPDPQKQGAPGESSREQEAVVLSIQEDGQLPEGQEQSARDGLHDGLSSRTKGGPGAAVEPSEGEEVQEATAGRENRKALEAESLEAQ
Summary of the method: as §1

T4 sequence (Q99KR7 30-206): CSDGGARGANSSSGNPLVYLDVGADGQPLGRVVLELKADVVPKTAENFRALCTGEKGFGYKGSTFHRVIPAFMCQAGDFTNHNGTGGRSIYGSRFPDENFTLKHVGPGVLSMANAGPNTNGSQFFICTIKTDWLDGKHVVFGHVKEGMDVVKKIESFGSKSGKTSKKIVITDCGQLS

- TMT signal-to-noise ratio [1]: 113.564
- TMT signal-to-noise ratio [2]: 300.176
- TMT signal-to-noise ratio [3]: 153.626
- TMT signal-to-noise ratio [4]: 249.839
- TMT signal-to-noise ratio [5]: 1810.14
Substance: adipsin
